Reference: paper PMC10538557, “Vps60 initiates alternative ESCRT-III filaments” (The Journal of Cell Biology, 2023)

T1: Vps2 (UniProt P36108 1-232, TFP-AlexaFluor-488, TFP-Atto-565 or NHS-Atto-647N label, by experiment; labeled proteins were mixed 1:1 with unlabeled proteins)
T1 construct: Vps2, ESCRT-III subunit (human homolog CHMP2A); The yeast protein is surmised from the yeast nomenclature; also called Alexa488-Vps2; Vps2-Alex488
T1 sequence (looked up): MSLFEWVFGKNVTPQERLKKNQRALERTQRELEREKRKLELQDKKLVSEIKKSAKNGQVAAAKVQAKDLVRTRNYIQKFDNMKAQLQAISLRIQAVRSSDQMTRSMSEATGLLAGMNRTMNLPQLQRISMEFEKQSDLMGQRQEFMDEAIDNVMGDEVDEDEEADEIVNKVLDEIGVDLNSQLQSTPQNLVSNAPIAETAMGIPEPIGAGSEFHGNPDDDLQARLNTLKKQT

B1: Vps24 (natural protein, UniProt P36095 1-224, looked up)
chain: MDYIKKAIWGPDPKEQQRRIRSVLRKNGRNIEKSLRELTVLQNKTQQLIKKSAKKNDVRTVRLYAKELYQINKQYDRMYTSRAQLDSVRMKIDEAIRMNTLSNQMADSAGLMREVNSLVRLPQLRNTMIELEKELMKSGIISEMVDDTMESVGDVGEEMDEAVDEEVNKIVEQYTNEKFKNVDQVPTVELAANEEEQEIPDEKVDEEADRMVNEMRERLRALQN
modifications: TFP-AlexaFluor-488 label where detected; labeled proteins were mixed 1:1 with unlabeled proteins
notes: Vps24, ESCRT-III subunit (human homolog CHMP3); The yeast protein is surmised from the yeast nomenclature; also called Alexa488-Vps24
B2: Did2 (natural protein, UniProt P69771 1-204, looked up)
chain: MSRNSAAGLENTLFQLKFTSKQLQKQANKASKEEKQETNKLKRALNENEDISRIYASNAIRKKNERLQLLKLASRVDSVASRVQTAVTMRQVSASMGQVCKGMDKALQNMNLQQITMIMDKFEQQFEDLDTSVNVYEDMGVNSDAMLVDNDKVDELMSKVADENGMELKQSAKLDNVPEIKAKEVNVDDEKEDKLAQRLRALRG
modifications: maleimide-AlexFluor-488 label where detected; labeled proteins were mixed 1:1 with unlabeled proteins
notes: Did2, ESCRT-III subunit (human homolog CHMP1B); The yeast protein is surmised from the yeast nomenclature; also called Alexa488-Did2; Did2-Atto565
B3: Vps60 (natural protein, S. cerevisiae, UniProt Q03390 1-229, looked up)
chain: MNRIFGYGNKKSHDQLLQESNQSMNQAQQSLSNRISQLDTQIAQLNFQLQNIQKNLQRSNNKQPSLRKQALKILNKRKQLENMKDSLDSQSWSMTQAQLTNDNLQNTMITINALKQTNNAMKAQYGKINIDKLQDMQDEMLDLIEQGDELQEVLAMNNNSGELDDISDAELDAELDALAQEDFTLPTSENSLGNDMPSYLLGANAPPAFIDEEPNLDTEDKNKALESAQ
modifications: TFP-Atto-565 label (Atto565-Vps60) in the fluorescence assays; Alexa488-Vps60 also named; labeled proteins were mixed 1:1 with unlabeled proteins
notes: Vps60 (Mos10), ESCRT-III subunit of yeast; construct pGEX4T-Vps60; also called Mos10; Atto565-Vps60; source: Bl21 Escherichia coli (pGEX4T-Vps60), purified on GST-resin, on-column cleavage with TEV protease

How the values were obtained:
Vps60 = molecular target: B3; test: negative-stain electron microscopy; LUVs (DOPC:DOPS 6:4) in 20 mM Tris, pH 6.8, 200 mM NaCl, 1 mM MgCl2, incubated with 250 nM Vps60 for 1 h at 4°C, alone or with subsets of ESCRT-III subunits (Vps2 and Vps24; Vps2, Vps24 and Did2); filaments imaged after uranyl acetate staining; conditions: both partners purified
[1] = molecular target: the molecule itself; test: as above
Vps2 = molecular target: T1, Vps2; test: recruitment on supported lipid bilayers, confocal fluorescence microscopy; SLBs covered with both Alexa488-Snf7 patches and Atto565-Vps60, incubated with Atto647-Vps2, Vps24 and Did2; time-lapse; conditions: both partners purified

binding result (Vps60) | binding result (Vps2) | Binder | binding result [1]
binds |  | B1 | 
binds |  | B2 | 
 | binds | B3 | binds
